# Source: IntAct's records for PubMed 22265413
# B1: Mixed lineage kinase domain-like protein (Homo sapiens), Q8NB16 (parent)
# chain: MENLKHIITLGQVIHKRCEEMKYCKKQCRRLGHRVLGLIKPLEMLQDQGKRSVPSEKLTTAMNRFKAALEEANGEIEKFSNRSNICRFLTASQDKILFKDVNRKLSDVWKELSLLLQVEQRMPVSPISQGASWAQEDQQDADEDRRAFQMLRRDNEKIEASLRRLEINMKEIKETLRQYLPPKCMQEIPQEQIKEIKKEQLSGSPWILLRENEVSTLYKGEYHRAPVAIKVFKKLQAGSIAIVRQTFNKEIKTMKKFESPNILRIFGICIDETVTPPQFSIVMEYCELGTLRELLDREKDLTLGKRMVLVLGAARGLYRLHHSEAPELHGKIRSSNFLVTQGYQVKLAGFELRKTQTSMSLGTTREKTDRVKSTAYLSPQELEDVFYQYDVKSEIYSFGIVLWEIATGDIPFQGCNSEKIRKLVAVKRQQEPLGEDCPSELREIIDECRAHDPSVRPSVDEILKKLSTFSK
# B2: Receptor-interacting serine/threonine-protein kinase 3 (Homo sapiens), Q9Y572 (parent)
# chain: MSCVKLWPSGAPAPLVSIEELENQELVGKGGFGTVFRAQHRKWGYDVAVKIVNSKAISREVKAMASLDNEFVLRLEGVIEKVNWDQDPKPALVTKFMENGSLSGLLQSQCPRPWPLLCRLLKEVVLGMFYLHDQNPVLLHRDLKPSNVLLDPELHVKLADFGLSTFQGGSQSGTGSGEPGGTLGYLAPELFVNVNRKASTASDVYSFGILMWAVLAGREVELPTEPSLVYEAVCNRQNRPSLAELPQAGPETPGLEGLKELMQLCWSSEPKDRPSFQECLPKTDEVFQMVENNMNAAVSTVKDFLSQLRSSNRRFSIPESGQGGTEMDGFRRTIENQHSRNDVMVSEWLNKLNLEEPPSSVPKKCPSLTKRSRAQEEQVPQAWTAGTSSDSMAQPPQTPETSTFRNQMPSPTSTGTPSPGPRGNQGAERQGMNWSCRTPEPNPVTGRPLVNIYNCSGVQVGDNNYLTMQQTTALPTWGLAPSGKGRGLQHPPPVGSQEGPKDPEAWSRPQGWYNHSGK
# partner: B1 chain
# Variants of: B1
# Settings: with ripk3_human RIPK3, Q9Y572
row,effect of a mutation on the interaction,Variant
1,disrupting interaction,MENLKHIITLGQVIHKRCEEMKYCKKQCRRLGHRVLGLIKPLEMLQDQGKRSVPSEKLTTAMNRFKAALEEANGEIEKFSNRSNICRFLTASQDKILFKDVNRKLSDVWKELSLLLQVEQRMPVSPISQGASWAQEDQQDADEDRRAFQMLRRDNEKIEASLRRLEINMKEIKETLRQYLPPKCMQEIPQEQIKEIKKEQLSGSPWILLRENEVSTLYKGEYHRAPVAIKVFKKLQAGSIAIVRQTFNKEIKTMKKFESPNILRIFGICIDETVTPPQFSIVMEYCELGTLRELLDREKDLTLGKRMVLVLGAARGLYRLHHSEAPELHGKIRSSNFLVTQGYQVKLAGFELRKTQAAMSLGTTREKTDRVKSTAYLSPQELEDVFYQYDVKSEIYSFGIVLWEIATGDIPFQGCNSEKIRKLVAVKRQQEPLGEDCPSELREIIDECRAHDPSVRPSVDEILKKLSTFSK [T357A;S358A]
2,decreasing interaction,MENLKHIITLGQVIHKRCEEMKYCKKQCRRLGHRVLGLIKPLEMLQDQGKRSVPSEKLTTAMNRFKAALEEANGEIEKFSNRSNICRFLTASQDKILFKDVNRKLSDVWKELSLLLQVEQRMPVSPISQGASWAQEDQQDADEDRRAFQMLRRDNEKIEASLRRLEINMKEIKETLRQYLPPKCMQEIPQEQIKEIKKEQLSGSPWILLRENEVSTLYKGEYHRAPVAIKVFKKLQAGSIAIVRQTFNKEIKTMKKFESPNILRIFGICIDETVTPPQFSIVMEYCELGTLRELLDREKDLTLGKRMVLVLGAARGLYRLHHSEAPELHGKIRSSNFLVTQGYQVKLAGFELRKTQEDMSLGTTREKTDRVKSTAYLSPQELEDVFYQYDVKSEIYSFGIVLWEIATGDIPFQGCNSEKIRKLVAVKRQQEPLGEDCPSELREIIDECRAHDPSVRPSVDEILKKLSTFSK [T357E;S358D]

# Variants of: B2
# Settings: with mlkl_human MLKL
row,effect of a mutation on the interaction,Variant
1,decreasing interaction,K50A

# Variants of: B2
# Settings: with mlkl_human MLKL
# Remark: another data set of the same source
row,effect of a mutation on the interaction,Variant
1,disrupting interaction,S227A
2,disrupting interaction,D142N
